Data taken from the supplement of paper PMC5998384.

How the values were obtained:
HeLa Kyoto [1] = test: solubility in G1/S (NP-40 vs SDS abundance) (log2 ratio); higher = more soluble; conditions: cell cycle stage: G1/S
HeLa Kyoto [2] = test: melting temperature (median over replicates), in situ; higher = more thermally stable
HeLa Kyoto [3] = test: thermal stability score vs G1/S (z-score of summed log2 fold changes over temperatures); higher = more thermally stable than in G1/S
HeLa Kyoto [4] = test: solubility change mitosis vs G1/S (difference of NP-40 vs SDS log2 ratios) (log2 ratio difference); higher = more soluble in mitosis
[5] = cell cycle stage: early G1 (4.5 h after nocodazole release)
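For melting temperature (median over replicates), in situ in this document: HeLa Kyoto cells synchronized by double thymidine or nocodazole block, proteins quantified by TMT10plex mass spectrometry, three independent biological replicates.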
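For solubility change mitosis vs G1/S (difference of NP-40 vs SDS log2 ratios) in this document: synchronized HeLa Kyoto cells (double thymidine block for G1/S, nocodazole release for mitosis), protein amounts in NP-40 versus SDS lysates quantified by mass spectrometry, three biological replicates.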
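For solubility in G1/S (NP-40 vs SDS abundance) in this document: HeLa Kyoto cells arrested at G1/S by double thymidine block, proteins quantified by TMT10plex mass spectrometry in mild NP-40 versus SDS extracts, three biological replicates.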
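For thermal stability score vs G1/S (z-score of summed log2 fold changes over temperatures) in this document: synchronized HeLa Kyoto cells, proteins quantified by TMT10plex mass spectrometry, three biological replicates, mitosis taken 0.5 h after nocodazole release, G1/S directly after double thymidine block.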

MGAFLDKPKMEKHNAQGQGNGLRYGLSSMQGWRVEMEDAHTAVIGLPSGLESWSFFAVYDGHAGSQVAKYCCEHLLDHITNNQDFKGSAGAPSVENVKNGIRTGFLEIDEHMRVMSEKKHGADRSGSTAVGVLISPQHTYFINCGDSRGLLCRNRKVHFFTQDHKPSNPLEKERIQNAGGSVMIQRVNGSLAVSRALGDFDYKCVHGKGPTEQLVSPEPEVHDIERSEEDDQFIILACDGIWDVMGNEELCDFVRSRLEVTDDLEKVCNEVVDTCLYKGSRDNMSVILICFPNAPKVSPEAVKKEAELDKYLECRVEEIIKKQGEGVPDLVHVMRTLASENIPSLPPGGELASKRNVIEAVYNRLNPYKNDDTDSTSTDDMW [PPM1A]
solubility in G1/S (log2) (HeLa Kyoto [1]): 0.243 | melting temperature (HeLa Kyoto [2]; cell cycle stage: G1/S): 51.9 °C | melting temperature (HeLa Kyoto [2]; cell cycle stage: mitosis): 52 °C | thermal stability score (HeLa Kyoto [3]; [5]): 0.1 | thermal stability score (HeLa Kyoto [3]; cell cycle stage: mitosis): -0.132 | solubility change mitosis (log2) (HeLa Kyoto [4]): -0.159

RALGAPB
solubility in G1/S (log2) (HeLa Kyoto [1]): -0.0337 | melting temperature (HeLa Kyoto [2]; cell cycle stage: G1/S): 50.2 °C | melting temperature (HeLa Kyoto [2]; cell cycle stage: mitosis): 51 °C | thermal stability score (HeLa Kyoto [3]; [5]): -1.55 | thermal stability score (HeLa Kyoto [3]; cell cycle stage: mitosis): -1.73 | solubility change mitosis (log2) (HeLa Kyoto [4]): -0.169

MARPLVPSSQKALLLELKGLQEEPVEGFRVTLVDEGDLYNWEVAIFGPPNTYYEGGYFKARLKFPIDYPYSPPAFRFLTKMWHPNIYETGDVCISILHPPVDDPQSGELPSERWNPTQNVRTILLSVISLLNEPNTFSPANVDASVMYRKWKESKGKDREYTDIIRKQVLGTKVDAERDGVKVPTTLAEYCVKTKAPAPDEGSDLFYDDYYEDGEVEEEADSCFGDDEDDSGTEES [CDC34]
solubility in G1/S (log2) (HeLa Kyoto [1]): 0.3 | melting temperature (HeLa Kyoto [2]; cell cycle stage: G1/S): 48.8 °C | melting temperature (HeLa Kyoto [2]; cell cycle stage: mitosis): 49.1 °C | thermal stability score (HeLa Kyoto [3]; [5]): 0.555 | thermal stability score (HeLa Kyoto [3]; cell cycle stage: mitosis): 2.54 | solubility change mitosis (log2) (HeLa Kyoto [4]): -0.0905

MEEECRVLSIQSHVIRGYVGNRAATFPLQVLGFEIDAVNSVQFSNHTGYAHWKGQVLNSDELQELYEGLRLNNMNKYDYVLTGYTRDKSFLAMVVDIVQELKQQNPRLVYVCDPVLGDKWDGEGSMYVPEDLLPVYKEKVVPLADIITPNQFEAELLSGRKIHSQEEALRVMDMLHSMGPDTVVITSSDLPSPQGSNYLIVLGSQRRRNPAGSVVMERIRMDIRKVDAVFVGTGDLFAAMLLAWTHKHPNNLKVACEKTVSTLHHVLQRTIQCAKAQAGEGVRPSPMQLELRMVQSKRDIEDPEIVVQATVL [PDXK]
solubility in G1/S (log2) (HeLa Kyoto [1]): 0.315 | melting temperature (HeLa Kyoto [2]; cell cycle stage: G1/S): 55.5 °C | melting temperature (HeLa Kyoto [2]; cell cycle stage: mitosis): 56.3 °C | thermal stability score (HeLa Kyoto [3]; [5]): 0.134 | thermal stability score (HeLa Kyoto [3]; cell cycle stage: mitosis): 0.0482 | solubility change mitosis (log2) (HeLa Kyoto [4]): -0.0576

MVMAYFVENFWGEKNSGFDVLYHNMKHGQISTKELADFVRERATIEEAYSRSMTKLAKSASNYSQLGTFAPVWDVFKTSTEKLANCHLDLVRKLQELIKEVQKYGEEQVKSHKKTKEEVAGTLEAVQTIQSITQALQKSKENYNAKCVEQERLKKEGATQREIEKAAVKSKKATDTYKLYVEKYALAKADFEQKMTETAQKFQDIEETHLIHIKEIIGSLSNAIKEIHLQIGQVHEEFINNMANTTVESLIQKFAESKGTGKERPGLIEFEECDTASAVEGIKPRKRKTFALPGIIKKEKDAESVECPDADSLNIPDVDEEGYSIKPETNQNDTKENHFYSSSDSDSEDEEPKKYRIEIKPMHPNNSHHTMASLDELKVSIGNITLSPAISRHSPVQMNRNLSNEELTKSKPSAPPNEKGTSDLLAWDPLFGPSLDSSSSSSLTSSSSARPTTPLSVGTIVPPPRPASRPKLTSGKLSGINEIPRPFSPPVTSNTSPPPAAPLARAESSSSISSSASLSAANTPTVGVSRGPSPVSLGNQDTLPVAVALTESVNAYFKGADPTKCIVKITGDMTMSFPSGIIKVFTSNPTPAVLCFRVKNISRLEQILPNAQLVFSDPSQCDSNTKDFWMNMQAVTVYLKKLSEQNPAASYYNVDVLKYQVSSNGIQSTPLNLATYWKCSASTTDLRVDYKYNPEAMVAPSVLSNIQVVVPVDGGVTNMQSLPPAIWNAEQMKAFWKLSSISEKSENGGSGSLRAKFDLSEGPSKPTTLAVQFLSEGSTLSGVDFELVGTGYRLSLIKKRFATGRYLADC [FCHO2]
solubility in G1/S (log2) (HeLa Kyoto [1]): -0.0326 | melting temperature (HeLa Kyoto [2]; cell cycle stage: G1/S): 50.9 °C | melting temperature (HeLa Kyoto [2]; cell cycle stage: mitosis): 50.9 °C | thermal stability score (HeLa Kyoto [3]; [5]): -0.516 | thermal stability score (HeLa Kyoto [3]; cell cycle stage: mitosis): 0.0307 | solubility change mitosis (log2) (HeLa Kyoto [4]): 0.0613

MGRTSKDKRDVYYRLAKENGWRARSAFKLLQLDKEFQLFQGVTRAVDLCAAPGSWSQVLSQKIGGQGSGHVVAVDLQAMAPLPGVVQIQGDITQLSTAKEIIQHFKGCPADLVVCDGAPDVTGLHDVDEYMQAQLLLAALNIATHVLKPGGCFVAKIFRGRDVTLLYSQLQVFFSSVLCAKPRSSRNSSIEAFAVCQGYDPPEGFIPDLSKPLLDHSYDPDFNQLDGPTRIIVPFVTCGDLSSYDSDRSYPLDLEGGSEYKYTPPTQPPISPPYQEACTLKRKGQLAKEIRPQDCPISRVDTFPQPLAAPQCHTLLAPEMEDNEMSCSP [FTSJ1]
solubility in G1/S (log2) (HeLa Kyoto [1]): 0.332 | melting temperature (HeLa Kyoto [2]; cell cycle stage: G1/S): 51.4 °C | melting temperature (HeLa Kyoto [2]; cell cycle stage: mitosis): 50.5 °C | thermal stability score (HeLa Kyoto [3]; [5]): -0.919 | thermal stability score (HeLa Kyoto [3]; cell cycle stage: mitosis): -0.299 | solubility change mitosis (log2) (HeLa Kyoto [4]): 0.07

MQRRGALFGMPGGSGGRKMAAGDIGELLVPHMPTIRVPRSGDRVYKNECAFSYDSPNSEGGLYVCMNTFLAFGREHVERHFRKTGQSVYMHLKRHVREKVRGASGGALPKRRNSKIFLDLDTDDDLNSDDYEYEDEAKLVIFPDHYEIALPNIEELPALVTIACDAVLSSKSPYRKQDPDTWENELPVSKYANNLTQLDNGVRIPPSGWKCARCDLRENLWLNLTDGSVLCGKWFFDSSGGNGHALEHYRDMGYPLAVKLGTITPDGADVYSFQEEEPVLDPHLAKHLAHFGIDMLHMHGTENGLQDNDIKLRVSEWEVIQESGTKLKPMYGPGYTGLKNLGNSCYLSSVMQAIFSIPEFQRAYVGNLPRIFDYSPLDPTQDFNTQMTKLGHGLLSGQYSKPPVKSELIEQVMKEEHKPQQNGISPRMFKAFVSKSHPEFSSNRQQDAQEFFLHLVNLVERNRIGSENPSDVFRFLVEERIQCCQTRKVRYTERVDYLMQLPVAMEAATNKDELIAYELTRREAEANRRPLPELVRAKIPFSACLQAFSEPENVDDFWSSALQAKSAGVKTSRFASFPEYLVVQIKKFTFGLDWVPKKFDVSIDMPDLLDINHLRARGLQPGEEELPDISPPIVIPDDSKDRLMNQLIDPSDIDESSVMQLAEMGFPLEACRKAVYFTGNMGAEVAFNWIIVHMEEPDFAEPLTMPGYGGAASAGASVFGASGLDNQPPEEIVAIITSMGFQRNQAIQALRATNNNLERALDWIFSHPEFEEDSDFVIEMENNANANIISEAKPEGPRVKDGSGTYELFAFISHMGTSTMSGHYICHIKKEGRWVIYNDHKVCASERPPKDLGYMYFYRRIPS [USP13]
solubility in G1/S (log2) (HeLa Kyoto [1]): 0.0742 | melting temperature (HeLa Kyoto [2]; cell cycle stage: G1/S): 50 °C | melting temperature (HeLa Kyoto [2]; cell cycle stage: mitosis): 50.2 °C | thermal stability score (HeLa Kyoto [3]; [5]): 0.321 | thermal stability score (HeLa Kyoto [3]; cell cycle stage: mitosis): 0.746 | solubility change mitosis (log2) (HeLa Kyoto [4]): -0.0974

MASGQGPGPPRQECGEPALPSASEEQVAQDTEEVFRSYVFYRHQQEQEAEGVAAPADPEMVTLPLQPSSTMGQVGRQLAIIGDDINRRYDSEFQTMLQHLQPTAENAYEYFTKIATSLFESGINWGRVVALLGFGYRLALHVYQHGLTGFLGQVTRFVVDFMLHHCIARWIAQRGGWVAALNLGNGPILNVLVVLGVVLLGQFVVRRFFKS [BAK1]
solubility in G1/S (log2) (HeLa Kyoto [1]): -0.215 | melting temperature (HeLa Kyoto [2]; cell cycle stage: mitosis): 55.7 °C | thermal stability score (HeLa Kyoto [3]; [5]): -0.0676 | thermal stability score (HeLa Kyoto [3]; cell cycle stage: mitosis): -0.207 | solubility change mitosis (log2) (HeLa Kyoto [4]): -0.0672
